Results from paper PMC9168836, “Clamping of DNA shuts the condensin neck gate” (Proceedings of the National Academy of Sciences of the …, 2021).

Columns and labels:
[1] = molecular target: Smc2;Smc4;Brn1 (kleisin);Ycs4 (HAWK) (Saccharomyces cerevisiae;Saccharomyces …, UniProt P38989;Q12267;P38170;Q06156 1-1170;1-1418;1-754;1-1176, |||); experiment: cryo-EM structure; condensin tetramer; ADP.BeF3, Mg2+; clamped head module Form I, 2.95 A; 30 mM Tris/HCl pH 7.5, 60 mM NaCl, 1 mM TCEP, 2 mM MgCl2, 5 mM ADP, 1 mM BeSO4, 10 mM NaF; 30 min at room temperature; 1-2 uM 80-bp DNA or 100 nM circular DNA; conditions: protein: recombinant;recombinant;recombinant;recombinant; copies: 1;1;1;1; blunt
Smc2;Smc4;Brn1 (kleisin);Ycs4 (HAWK), sequence (P38989 whole entry, chain 1 of 4): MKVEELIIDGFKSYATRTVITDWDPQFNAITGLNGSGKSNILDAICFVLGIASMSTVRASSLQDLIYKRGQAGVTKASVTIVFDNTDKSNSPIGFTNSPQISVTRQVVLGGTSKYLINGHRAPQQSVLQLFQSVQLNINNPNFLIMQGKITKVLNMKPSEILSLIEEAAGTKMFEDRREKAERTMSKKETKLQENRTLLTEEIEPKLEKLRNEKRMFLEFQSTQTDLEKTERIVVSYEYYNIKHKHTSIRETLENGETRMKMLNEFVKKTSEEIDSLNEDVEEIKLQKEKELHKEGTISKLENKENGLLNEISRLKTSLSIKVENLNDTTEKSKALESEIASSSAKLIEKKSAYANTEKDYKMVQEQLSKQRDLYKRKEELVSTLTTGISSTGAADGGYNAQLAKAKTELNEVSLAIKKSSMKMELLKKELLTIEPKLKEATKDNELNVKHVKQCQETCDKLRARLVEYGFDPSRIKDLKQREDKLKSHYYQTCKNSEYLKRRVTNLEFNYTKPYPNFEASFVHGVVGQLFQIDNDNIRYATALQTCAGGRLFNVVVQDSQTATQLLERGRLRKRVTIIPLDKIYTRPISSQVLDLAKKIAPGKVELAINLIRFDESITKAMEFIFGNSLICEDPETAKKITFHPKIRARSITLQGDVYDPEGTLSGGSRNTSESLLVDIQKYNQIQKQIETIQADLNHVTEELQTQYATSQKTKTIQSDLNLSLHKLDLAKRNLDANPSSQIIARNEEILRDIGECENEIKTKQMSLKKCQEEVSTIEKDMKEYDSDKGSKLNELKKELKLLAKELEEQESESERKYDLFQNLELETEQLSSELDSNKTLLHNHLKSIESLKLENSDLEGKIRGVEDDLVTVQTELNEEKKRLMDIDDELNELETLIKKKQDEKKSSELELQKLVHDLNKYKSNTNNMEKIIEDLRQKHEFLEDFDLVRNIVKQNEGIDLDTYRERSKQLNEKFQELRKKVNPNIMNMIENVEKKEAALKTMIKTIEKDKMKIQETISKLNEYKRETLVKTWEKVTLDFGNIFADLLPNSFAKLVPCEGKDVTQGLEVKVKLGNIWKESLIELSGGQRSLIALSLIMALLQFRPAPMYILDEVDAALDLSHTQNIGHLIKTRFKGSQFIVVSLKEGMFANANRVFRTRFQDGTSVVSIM
Smc2;Smc4;Brn1 (kleisin);Ycs4 (HAWK), sequence (Q12267 whole entry, chain 2 of 4): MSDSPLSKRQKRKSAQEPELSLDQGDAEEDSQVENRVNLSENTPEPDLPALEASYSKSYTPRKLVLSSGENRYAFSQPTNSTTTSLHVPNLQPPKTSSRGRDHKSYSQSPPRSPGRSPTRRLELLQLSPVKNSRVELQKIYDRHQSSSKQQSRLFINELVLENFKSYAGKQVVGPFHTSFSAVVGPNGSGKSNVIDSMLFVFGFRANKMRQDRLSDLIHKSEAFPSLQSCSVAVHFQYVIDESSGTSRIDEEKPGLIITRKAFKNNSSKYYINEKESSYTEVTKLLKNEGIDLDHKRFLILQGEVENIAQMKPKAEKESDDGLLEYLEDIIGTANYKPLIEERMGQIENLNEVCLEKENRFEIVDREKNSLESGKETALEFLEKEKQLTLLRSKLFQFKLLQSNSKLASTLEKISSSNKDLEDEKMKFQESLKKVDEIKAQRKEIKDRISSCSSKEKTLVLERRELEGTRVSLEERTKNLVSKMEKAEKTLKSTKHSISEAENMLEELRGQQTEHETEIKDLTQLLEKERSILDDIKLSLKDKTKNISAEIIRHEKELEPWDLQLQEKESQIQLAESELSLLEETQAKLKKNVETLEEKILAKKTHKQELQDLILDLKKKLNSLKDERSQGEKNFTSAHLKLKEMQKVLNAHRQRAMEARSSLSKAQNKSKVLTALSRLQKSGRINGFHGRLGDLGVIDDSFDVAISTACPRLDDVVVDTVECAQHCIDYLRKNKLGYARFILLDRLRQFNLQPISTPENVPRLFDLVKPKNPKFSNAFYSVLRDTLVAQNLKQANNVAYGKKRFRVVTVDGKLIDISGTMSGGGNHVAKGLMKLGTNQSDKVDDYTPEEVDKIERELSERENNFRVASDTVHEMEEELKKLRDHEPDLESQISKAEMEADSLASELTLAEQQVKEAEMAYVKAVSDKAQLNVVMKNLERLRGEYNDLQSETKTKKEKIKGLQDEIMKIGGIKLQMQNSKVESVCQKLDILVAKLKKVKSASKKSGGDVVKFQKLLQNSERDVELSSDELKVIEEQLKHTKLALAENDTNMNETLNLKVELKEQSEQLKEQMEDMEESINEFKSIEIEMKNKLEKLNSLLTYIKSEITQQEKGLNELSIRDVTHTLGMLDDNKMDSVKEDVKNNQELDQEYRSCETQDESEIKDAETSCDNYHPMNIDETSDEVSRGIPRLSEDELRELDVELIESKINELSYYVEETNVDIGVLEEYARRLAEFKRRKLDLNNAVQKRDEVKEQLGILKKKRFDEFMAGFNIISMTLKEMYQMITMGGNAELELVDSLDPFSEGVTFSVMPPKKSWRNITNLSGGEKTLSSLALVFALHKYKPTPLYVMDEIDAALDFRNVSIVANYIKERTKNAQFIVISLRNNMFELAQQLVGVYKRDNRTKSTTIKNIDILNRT
Smc2;Smc4;Brn1 (kleisin);Ycs4 (HAWK), sequence (P38170 whole entry, chain 3 of 4): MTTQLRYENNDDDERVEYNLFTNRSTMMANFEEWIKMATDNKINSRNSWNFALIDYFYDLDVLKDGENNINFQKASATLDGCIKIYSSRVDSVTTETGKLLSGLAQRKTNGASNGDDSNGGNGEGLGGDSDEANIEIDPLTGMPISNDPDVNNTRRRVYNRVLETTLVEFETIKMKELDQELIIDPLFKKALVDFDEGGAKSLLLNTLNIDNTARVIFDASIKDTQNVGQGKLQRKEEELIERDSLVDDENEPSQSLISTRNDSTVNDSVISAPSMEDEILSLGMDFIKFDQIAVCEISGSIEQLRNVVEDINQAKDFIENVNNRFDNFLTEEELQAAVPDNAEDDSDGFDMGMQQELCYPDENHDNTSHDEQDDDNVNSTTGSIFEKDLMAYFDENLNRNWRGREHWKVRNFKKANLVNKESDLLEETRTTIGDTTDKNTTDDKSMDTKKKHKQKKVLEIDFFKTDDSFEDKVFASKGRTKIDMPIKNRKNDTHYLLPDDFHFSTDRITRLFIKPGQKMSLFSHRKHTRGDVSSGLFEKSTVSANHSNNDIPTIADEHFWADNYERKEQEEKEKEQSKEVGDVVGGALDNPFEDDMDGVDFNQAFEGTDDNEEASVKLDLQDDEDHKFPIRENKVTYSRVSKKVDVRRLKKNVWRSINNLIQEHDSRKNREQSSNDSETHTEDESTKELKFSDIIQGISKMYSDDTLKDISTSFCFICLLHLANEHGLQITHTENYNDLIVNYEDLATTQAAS
Smc2;Smc4;Brn1 (kleisin);Ycs4 (HAWK), sequence (Q06156 whole entry, chain 4 of 4): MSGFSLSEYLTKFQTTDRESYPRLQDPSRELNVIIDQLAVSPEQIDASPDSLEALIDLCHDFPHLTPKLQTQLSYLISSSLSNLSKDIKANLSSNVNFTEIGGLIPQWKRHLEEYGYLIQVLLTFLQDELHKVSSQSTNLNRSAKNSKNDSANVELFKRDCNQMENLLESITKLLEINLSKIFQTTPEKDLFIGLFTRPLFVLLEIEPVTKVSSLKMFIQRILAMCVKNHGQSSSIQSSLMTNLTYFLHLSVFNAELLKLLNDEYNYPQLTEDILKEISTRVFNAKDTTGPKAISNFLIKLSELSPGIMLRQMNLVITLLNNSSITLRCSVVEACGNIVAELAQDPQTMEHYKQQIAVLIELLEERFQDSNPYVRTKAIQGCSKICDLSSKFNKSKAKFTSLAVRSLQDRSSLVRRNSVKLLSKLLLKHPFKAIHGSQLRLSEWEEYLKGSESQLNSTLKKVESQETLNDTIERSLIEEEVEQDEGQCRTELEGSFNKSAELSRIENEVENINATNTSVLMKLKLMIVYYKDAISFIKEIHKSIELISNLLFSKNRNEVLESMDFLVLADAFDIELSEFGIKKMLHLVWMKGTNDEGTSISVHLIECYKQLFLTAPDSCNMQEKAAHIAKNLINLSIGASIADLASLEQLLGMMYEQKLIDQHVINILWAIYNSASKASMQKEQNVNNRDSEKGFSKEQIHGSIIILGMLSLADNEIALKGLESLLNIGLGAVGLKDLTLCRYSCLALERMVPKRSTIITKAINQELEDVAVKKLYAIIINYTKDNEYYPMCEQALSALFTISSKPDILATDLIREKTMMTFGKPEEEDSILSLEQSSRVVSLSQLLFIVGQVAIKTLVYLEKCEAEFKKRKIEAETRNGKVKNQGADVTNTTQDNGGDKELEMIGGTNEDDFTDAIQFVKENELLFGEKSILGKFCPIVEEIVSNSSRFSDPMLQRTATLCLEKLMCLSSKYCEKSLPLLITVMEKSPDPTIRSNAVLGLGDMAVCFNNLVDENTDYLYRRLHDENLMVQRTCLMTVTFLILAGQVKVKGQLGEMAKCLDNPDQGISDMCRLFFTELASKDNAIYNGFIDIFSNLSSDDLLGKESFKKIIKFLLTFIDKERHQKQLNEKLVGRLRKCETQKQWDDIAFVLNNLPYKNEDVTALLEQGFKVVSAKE

[2] = molecular target: Ycg1 (HAWK);Brn1 (kleisin) (Saccharomyces cerevisiae;Saccharomyces …, UniProt Q06680;P38170 1-1035;1-754, |); experiment: cryo-EM structure; Ycg1-Brn1 part of the condensin pentamer; ADP.BeF3, Mg2+ in sample; 3.2 A; 30 mM Tris/HCl pH 7.5, 60 mM NaCl, 1 mM TCEP, 2 mM MgCl2, 5 mM ADP, 1 mM BeSO4, 10 mM NaF; 30 min at room temperature; 1-2 uM 80-bp DNA or 100 nM circular DNA; conditions: protein: recombinant;recombinant; tags: see P1;see P1; copies: 1;1; blunt
[3] = molecular target: Smc2;Smc4;Brn1 (kleisin);Ycs4 (HAWK);Ycg1 (HAWK) (Saccharomyces cerevisiae;Saccharomyces …, UniProt P38989;Q12267;P38170;Q06156;Q06680 1-1170;1-1418;1-754;1-1176;1-1035, ||||); experiment: cryo-EM structure; condensin pentamer; ADP.BeF3, Mg2+; clamped head module map EMD-13785, Ycg1 not on head module; 30 mM Tris/HCl pH 7.5, 60 mM NaCl, 1 mM TCEP, 2 mM MgCl2, 5 mM ADP, 1 mM BeSO4, 10 mM NaF; 30 min at room temperature; 1-2 uM 80-bp DNA or 100 nM circular DNA; conditions: protein: recombinant;recombinant;recombinant;recombinant;recombinant; copies: 1;1;1;1;1; blunt

Measured: binding result

B1: 80-bp dsDNA (dsDNA)
DNA 1: GAATTCGGTGCGCATAATGTATAATAAGATAAATAAGCTTAAGTTCTTCCGATGCATAATAACATAATACGTGACTTTAC
DNA 2: GTAAAGTCACGTATTATGTTATTATGCATCGGAAGAACTTAAGCTTATTTATCTTATTATACATTATGCGCACCGAATTC
binds: all assays above
